Laboratory results taken from PMC4011729, “Inhibiting Heat Shock Factor 1 in Human Cancer Cells with a Potent RNA Aptamer”.

Columns and labels:
HSF1 = HSF1 (Homo sapiens, UniProt Q00613 1-529); experiment: EMSA; apparent Kd, n = 5; 1 nM RNA; EMSA: 1X binding buffer (composition not given), 1 µg yeast RNA, 4 µg BSA, 5 mM DTT, 10% glycerol, 6 U SUPERase-In in 10 µl; room temperature 30 min then 4 C 10 min; 6-9% native gel, 1/4 TBE, 1 mM MgCl2, 4 C; pH not stated; conditions: protein: recombinant; tags: His; label: internal 32P-UTP; two aptamer units, 5' and 3' ends protected
Chain of HSF1 (Q00613 whole entry): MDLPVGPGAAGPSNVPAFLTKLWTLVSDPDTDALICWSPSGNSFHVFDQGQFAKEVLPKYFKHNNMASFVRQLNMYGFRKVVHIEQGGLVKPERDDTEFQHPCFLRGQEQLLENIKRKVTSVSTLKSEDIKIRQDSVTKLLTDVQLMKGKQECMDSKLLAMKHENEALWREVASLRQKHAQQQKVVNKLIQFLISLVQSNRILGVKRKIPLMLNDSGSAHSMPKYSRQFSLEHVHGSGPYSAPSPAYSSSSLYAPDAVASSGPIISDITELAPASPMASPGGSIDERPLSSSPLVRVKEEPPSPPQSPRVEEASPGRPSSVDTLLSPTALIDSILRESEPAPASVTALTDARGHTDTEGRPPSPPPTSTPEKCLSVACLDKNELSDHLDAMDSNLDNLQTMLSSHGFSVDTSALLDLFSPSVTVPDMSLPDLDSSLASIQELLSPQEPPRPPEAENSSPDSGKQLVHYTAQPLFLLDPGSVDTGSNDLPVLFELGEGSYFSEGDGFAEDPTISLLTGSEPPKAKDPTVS

HSF2 = HSF2 (Homo sapiens, UniProt Q03933 1-536); experiment: EMSA; apparent affinity from % shifted complex; 1 nM RNA; EMSA: 1X binding buffer (composition not given), 1 µg yeast RNA, 4 µg BSA, 5 mM DTT, 10% glycerol, 6 U SUPERase-In in 10 µl; room temperature 30 min then 4 C 10 min; 6-9% native gel, 1/4 TBE, 1 mM MgCl2, 4 C; pH not stated; conditions: protein: recombinant; tags: His; label: internal 32P-UTP; two aptamer units, 5' and 3' ends protected
Chain of HSF2 (Q03933 whole entry): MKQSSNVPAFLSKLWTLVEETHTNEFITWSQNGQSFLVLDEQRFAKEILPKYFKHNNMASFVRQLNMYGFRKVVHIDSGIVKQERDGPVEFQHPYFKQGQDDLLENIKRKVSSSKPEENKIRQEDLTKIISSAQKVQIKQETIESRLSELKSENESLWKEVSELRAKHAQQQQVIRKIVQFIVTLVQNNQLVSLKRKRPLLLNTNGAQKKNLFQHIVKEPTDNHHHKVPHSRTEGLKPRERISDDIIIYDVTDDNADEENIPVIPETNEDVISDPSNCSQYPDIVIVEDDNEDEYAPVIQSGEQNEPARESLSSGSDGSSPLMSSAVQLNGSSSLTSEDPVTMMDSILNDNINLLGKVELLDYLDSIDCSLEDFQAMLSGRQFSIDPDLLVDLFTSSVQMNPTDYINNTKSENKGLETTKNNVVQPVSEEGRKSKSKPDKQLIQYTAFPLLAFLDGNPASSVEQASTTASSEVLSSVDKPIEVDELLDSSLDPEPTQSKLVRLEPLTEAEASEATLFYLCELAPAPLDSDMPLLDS

B1: iaRNAHSF1 (structured_RNA)
RNA: GUCGAGUGACGUUGGCAUCGCGAUACAAAAUUAAGUUGAACGCGAGUUCUUCGGAAUUCAACUGCCUUCGUCAUACUCCUUGAAUUCAACUGCCUUCGGGCAUCGCGAUACAAAAUUAAGUUGAACGCGAGUUCUUGGAGGCUCGACGUCUAGCGAUGUGGUUUCGCUACUGAUGAGUCCGUGAGGACGAAAC
Binder B1 has a Kd (HSF1) of about 25 nM and a Kd (HSF2) of about 141 nM.
